B1: PCT Nb2 (VHH)
VHH: QVQLQESGGGSVQAGGSLRLSCAASTSSNVNVCMGWFRQAPGKEREGVAVIARDSETNYAASVKGRFTISQDNAKNTLYLQLNSLKPEDTAMYYCAAGPCANIRGSWSNSRLLRYNFWGQGTQVTVSS
notes: VHH from a naïve bactrian camel phage display library; Expressed from phagemid pMECS; source: E. coli WK6, periplasmic extract by osmotic shock, purified (Ni-NTA, 500 mM imidazole); not shown: HA, C-terminal, kept
B2: PCT Nb3 (VHH)
VHH: QVQLQESGGGSVQVGGSLRLSCAASGYTYSSACMGWFRQAPGKEREWVGSIVSDSDDRTNYADAVKGRFTITQDNAKNTVYLQMNSLKPEDTAMYYCAARPGNCFIATKTRRYDYWGQGTQVTVSS
notes: as for B1
B3: PCT Nb1 (VHH)
VHH: QVQLQESGGGSVQAGGSLRLSCLASGYTYSSYCMGWFRQAPGKEREGVAAIGSDGSTSYADSVKGRFTISQDNAKNTLYLQMNSLKPEDTAMYYCAASKSEYDCYSGSGGLFGYWGQGTQVTVSS
notes: as for B1

Biological target: T1, human procalcitonin (Homo sapiens, UniProt P01258)
T1 construct: human procalcitonin (PCT), the product of preprocalcitonin after removal of the signal peptide; Bought protein; also called PCT; source: bought: Huibiao Biological Technology Co., Ltd
Assay: SPR; SPRi on PlexArray HT; Nbs spotted and immobilised on NanoCapture 3D-chip; PCT injected at 9.7, 29.2, 87.6 and 263 nM in PBST, 2 uL/s; 1:1 Langmuir fit
Conditions: both partners purified

| Binder | Kd [nM] | koff [s⁻¹] | kon [M⁻¹ s⁻¹] |
| --- | --- | --- | --- |
| B1 | 1.34 | 0.000197 | 147000 |
| B2 | 8.89 | 0.000383 | 43100 |
| B3 | 12.3 | 0.00051 | 41600 |

Source: article PMC4475299, “Characterization and applications of Nanobodies against human procalcitonin selected from a novel naïve Nanobody phage display library” (Journal of Nanobiotechnology, 2015)
